Experiment [1] has as its target T1, HSA (UniProt P02768 25-609). The experiment can be described thus: ELISA, HSA dried on Terasaki plates, Experiment A. How it is done:
(§1) The plates were blocked for 1 hour at room temperature using PBS/3% BSA and washed three times with PBS. Serial dilutions of test antibodies in PBS/3% BSA were applied to the wells and the plates incubated for 1 hour before washing as above. Suitable anti-murine antibody or anti-human antibody alkaline phosphatase-conjugated antibodies were diluted in PBS/3% BSA and incubated in the wells for 1.5 h. After washing, colour was developed using diethanolamine and p-nitrophenyl phosphate at 37° C. for about 20 min and the absorbances measured at 405 mn.

The target in experiment [2] is T1, HSA. In words: ELISA, HSA dried on Terasaki plates, Experiment B. How it is done: as §1
In general terms: An ELISA detects its analyte on a solid surface through an enzyme-linked reagent.

Positions count from the first letter of the chain named.

T1 sequence (P02768 25-609): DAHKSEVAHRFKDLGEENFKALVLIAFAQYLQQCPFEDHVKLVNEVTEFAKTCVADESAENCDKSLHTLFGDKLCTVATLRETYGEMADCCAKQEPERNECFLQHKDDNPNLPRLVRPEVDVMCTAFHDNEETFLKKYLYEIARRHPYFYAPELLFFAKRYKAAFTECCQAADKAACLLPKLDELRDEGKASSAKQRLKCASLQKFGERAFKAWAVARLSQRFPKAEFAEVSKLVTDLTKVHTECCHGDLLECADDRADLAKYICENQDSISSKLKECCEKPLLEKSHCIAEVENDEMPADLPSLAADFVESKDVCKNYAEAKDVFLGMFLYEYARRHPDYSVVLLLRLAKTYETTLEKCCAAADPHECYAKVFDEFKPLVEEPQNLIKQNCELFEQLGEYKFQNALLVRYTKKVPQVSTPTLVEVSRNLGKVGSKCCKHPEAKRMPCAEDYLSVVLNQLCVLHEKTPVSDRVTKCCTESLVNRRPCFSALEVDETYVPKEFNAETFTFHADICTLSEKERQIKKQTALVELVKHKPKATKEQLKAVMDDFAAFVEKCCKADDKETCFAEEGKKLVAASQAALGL

B1: humanized 3S193 antibody HuVH/HuVK (antibody, V domains shown)
VH: EVQLVESGGGVVQPGRSLRLSCSSSGFTFSDYYMYWVRQAPGKGLEWVAYMSNVGAITDYPDTVKGRFTISRDNSKNTLFLQMDSLRPEDTGVYFCARGTRDGSWFAYWGQGTPVTVSS
VL: DIQMTQSPSSLSASVGDRVTITCRSSQRIVHSNGNTYLEWYQQTPGKAPKLLIYKVSNRFSGVPSRFSGSGSGTDYTFTISSLQPEDIATYYCFQGSHVPFTFGQGTKLQIT
notes: also called 3S193 HuVH/HuVK
On to B1, for which the binding result in the experiment with HSA [1] is reported as “no binding (tested: 100 µg/ml (highest concentration tested))”.

B2: humanized 3S193 antibody HuVHA/HuVKF (antibody, V domains shown)
VH: B1 VH with S75A
VL: B1 VL with Y76F
B2: the binding result in the experiment with HSA [2] is reported as “no binding (tested: 100 µg/ml (highest concentration tested))”.

B3: humanized 3S193 antibody HuVHAS/HuVKF (antibody, V domains shown)
VH: B1 VH with S75A, N77S
VL: B1 VL with Y76F
With B3, the binding result with HSA [2] was “no binding (tested: 100 µg/ml (highest concentration tested))”.

B4: humanized 3S193 antibody HuVHASY/HuVKF (antibody, V domains shown)
VH: B1 VH with S75A, N77S, F80Y
VL: B1 VL with Y76F
notes: also called 3S193HuVHASY
For B4, the binding result with HSA [2] is given as “no binding (tested: 100 µg/ml (highest concentration tested))”.

B5: murine monoclonal antibody 3S193 (antibody, V domains shown)
VH: EVKLVESGGGLVQPGGSLKLSCATSGFTFSDYYMYWVRQTPEKRLEWVAYMSNVGAITDYPDTVKGRFTISRDNAKSTLYLQMSRLRSEDTAMYYCARGTRDGSWFAYWGQGTLVTVSA
VL: DVLMTQTPLSLPVSLGDQASISCRSSQRIVHSNGNTYLEWYLQKPGQSPKLLIYKVSNRFSGVPDRFSGSGSGTDFTLKISRVEAEDLGVYYCFQGSHVPFTFGSGTKLEIK
notes: The N-terminal residues of the VK in the listing are dictated by the VK10BACK primer; also called murine 3S193
For the molecule B5, the binding result in the experiment with HSA [1] was “no binding (tested: 100 µg/ml (highest concentration tested))”.
